{"source": "patent US20240124590A1", "about": "(ULTRAHUMAN EIGHT, published 2024)", "binders": {"B1": {"name": "IgG1-08 (antibody, V domains shown)", "VH": "EVQLVESGGGLVQPGGSLRLSCAASGFTFSSYLMSWVRQAPGKGLEWVATISGGGSEKYYVDSVKGRFTISRDNAKNSLYLQMNSLRAEDTAVYYCARQLYGFDYWGQGTLVTVSS", "VL": "not shown", "notes": "Designer; human IgG1null + Ckappa; also called Antibody IgG1-08; MAB08"}, "B2": {"name": "IgG1-05 (antibody, V domains shown)", "VH": "B1 VH with L100V, G102Y", "VL": "not shown", "notes": "Designer; human IgG1null + Ckappa; also called Antibody IgG1-05"}, "B3": {"name": "IgG1-06D02 (antibody, V domains shown)", "VH": "B1 VH with K58T", "VL": "not shown", "notes": "Library-derived; human IgG1null + Ckappa; also called Clone 06D02"}}, "note": "Where a chain is given by its changes, count along the chain named."}
{"biological_target": "T1, recombinant ectodomain of human VEGFR2 (human, UniProt P35968 20-764)", "T1 construct": "whole entry named", "test": "direct ELISA"}
{"binder": "B1", "binding result": "no binding"}
{"binder": "B2", "binding result": "no binding"}
{"binder": "B3", "binding result": "no binding"}
{"biological_target": "T2, recombinant ectodomain of rhesus VEGFR2 (rhesus)", "T2 construct": "whole entry named", "T2 chain": "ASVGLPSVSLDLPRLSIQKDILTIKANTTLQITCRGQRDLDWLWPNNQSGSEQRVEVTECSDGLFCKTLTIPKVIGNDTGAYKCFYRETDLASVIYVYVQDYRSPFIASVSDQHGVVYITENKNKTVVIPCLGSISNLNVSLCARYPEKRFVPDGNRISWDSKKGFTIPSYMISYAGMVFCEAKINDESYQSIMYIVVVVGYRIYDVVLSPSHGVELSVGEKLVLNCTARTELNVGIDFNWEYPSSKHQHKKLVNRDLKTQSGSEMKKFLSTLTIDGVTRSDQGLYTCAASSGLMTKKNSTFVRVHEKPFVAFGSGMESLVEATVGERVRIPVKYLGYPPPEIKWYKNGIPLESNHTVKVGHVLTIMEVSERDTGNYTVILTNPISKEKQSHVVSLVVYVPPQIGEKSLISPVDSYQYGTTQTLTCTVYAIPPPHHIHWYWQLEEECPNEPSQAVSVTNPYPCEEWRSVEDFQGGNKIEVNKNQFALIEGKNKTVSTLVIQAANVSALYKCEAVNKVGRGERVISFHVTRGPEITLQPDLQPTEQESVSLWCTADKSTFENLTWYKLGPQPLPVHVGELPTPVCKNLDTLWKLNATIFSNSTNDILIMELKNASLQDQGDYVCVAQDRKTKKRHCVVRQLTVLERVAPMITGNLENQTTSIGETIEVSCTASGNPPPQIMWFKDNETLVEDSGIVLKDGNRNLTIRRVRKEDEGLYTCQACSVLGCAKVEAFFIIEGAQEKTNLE", "test": "direct ELISA"}
{"binder": "B1", "binding result": "no binding"}
{"binder": "B2", "binding result": "no binding"}
{"binder": "B3", "binding result": "no binding"}
{"biological_target": "T3, recombinant ectodomain of human FZD5 (human, UniProt Q13467 27-167, limits assumed)", "T3 construct": "whole entry named", "T3 sequence": "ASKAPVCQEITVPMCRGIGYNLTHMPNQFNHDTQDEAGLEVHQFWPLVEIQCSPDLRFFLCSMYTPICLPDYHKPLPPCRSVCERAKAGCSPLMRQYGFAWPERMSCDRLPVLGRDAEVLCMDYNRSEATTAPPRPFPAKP", "test": "direct ELISA"}
{"binder": "B1", "binding result": "no binding"}
{"binder": "B2", "binding result": "no binding"}
{"binder": "B3", "binding result": "no binding"}
{"biological_target": "T4, BSA protein (UniProt P02769 25-607)", "T4 construct": "Negative-control coat of the ELISA", "T4 sequence (P02769 25-607 limits assumed)": "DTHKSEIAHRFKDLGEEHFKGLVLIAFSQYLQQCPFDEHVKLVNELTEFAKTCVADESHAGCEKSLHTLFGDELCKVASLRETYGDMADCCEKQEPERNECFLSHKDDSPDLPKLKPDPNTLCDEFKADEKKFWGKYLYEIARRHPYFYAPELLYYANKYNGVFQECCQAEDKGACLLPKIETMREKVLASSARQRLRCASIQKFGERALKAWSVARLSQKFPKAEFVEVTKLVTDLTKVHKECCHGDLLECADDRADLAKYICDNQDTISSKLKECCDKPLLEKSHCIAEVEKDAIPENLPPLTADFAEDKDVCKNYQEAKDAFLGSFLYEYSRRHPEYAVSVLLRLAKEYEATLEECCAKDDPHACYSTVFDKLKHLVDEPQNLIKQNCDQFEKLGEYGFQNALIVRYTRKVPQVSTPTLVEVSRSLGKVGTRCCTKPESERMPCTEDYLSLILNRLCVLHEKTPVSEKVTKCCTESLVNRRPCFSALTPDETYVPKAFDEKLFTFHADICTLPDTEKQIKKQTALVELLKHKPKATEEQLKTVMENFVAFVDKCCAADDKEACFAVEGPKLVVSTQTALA", "test": "direct ELISA"}
{"binder": "B1", "binding result": "no binding"}
{"binder": "B2", "binding result": "no binding"}
{"binder": "B3", "binding result": "no binding"}
{"biological_target": "T5, human PD1 expressed on cells (human, UniProt Q15116 25-288)", "T5 sequence (Q15116 25-288 limits assumed)": "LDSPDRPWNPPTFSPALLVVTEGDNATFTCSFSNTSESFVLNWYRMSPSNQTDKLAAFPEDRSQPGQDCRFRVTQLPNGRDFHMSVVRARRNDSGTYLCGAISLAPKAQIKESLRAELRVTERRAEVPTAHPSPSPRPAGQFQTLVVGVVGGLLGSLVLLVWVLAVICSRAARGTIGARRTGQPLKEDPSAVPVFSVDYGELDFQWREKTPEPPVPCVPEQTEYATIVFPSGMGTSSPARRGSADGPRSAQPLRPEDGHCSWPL", "test": "cell-based or functional assay", "units": {"EC50 (ng/ml), IgG1null blockade of human PD1/PD-L1": "ng/mL"}}
{"binder": "B1", "EC50 (ng/ml), IgG1null blockade of human PD1/PD-L1": 127}
{"binder": "B2", "EC50 (ng/ml), IgG1null blockade of human PD1/PD-L1": 156}
{"binder": "B3", "EC50 (ng/ml), IgG1null blockade of human PD1/PD-L1": 224}
{"biological_target": "T5, human PD1 expressed on cells", "test": "flow cytometry, PD1 CHO-K1 cells", "description": "Purified IgGs were tested in FACs for binding to human and cyno PD1 expressed on CHO-K1 stable cell lines and CHO-K1 wild-type cells. […] Binding of IgGs was detected with a mouse anti-human IgG conjugated to FITC. Results were analyzed by examining the Mean Fluorescence Intensity (MFI) of 10000 cells per sample in the BL-1 channel detector of a flow cytometer (Attune™ NxT Acoustic Focusing Cytometer, Invitrogen/ThermoFisher Scientific).\nAntibodies to PD1 were analysed for concentration-dependent binding at the cell surface via flow cytometry. Initial analyses were performed on CHO cells stably-transfected with human or cyno PD1.", "units": {"EC50": "nM"}}
{"binder": "B1", "EC50": 1.55}
{"binder": "B2", "EC50": 1.66}
{"binder": "B3", "EC50": 1.78}
{"biological_target": "T6, human FZD5 (frizzled class receptor 5) on transfected HEK293 cells (human, UniProt Q13467 27-585)", "T6 construct": "also called FZDS; FZ5", "test": "cell microarray re-array, transfected HEK293", "description": "(§1) Antibody binding was detected using AF647 fluorescent secondary anti-human IgG1 antibody. Primary hits (duplicate spots) were identified by analysing fluorescence (AF647 and ZsGreen1) on ImageQuant. Vectors encoding all hits were sequenced to confirm their correct identities. […] Slides were analysed as above. Flow cytometry confirmation screen: Expression vectors encoding ZsGreen1 only, or ZsGreen1 and PD1, FZDS, KDR or ULBP2, were transfected into human HEK293 cells. Each live transfectant was incubated with […] of each of the test antibodies and the Isotype control antibody. Cells were washed, and incubated with the same AF647 anti-human IgG Fc detection antibody as used in the cell microarray screens. Cells were again washed, and analysed by flow cytometry using an Accuri flow cytometer (BD). A 7AAD live/dead dye was used to exclude dead cells, and ZsGreen1-positive cells (i.e. transfected cells) were selected for analyses."}
{"binder": "B1", "binding result": "no binding (tested: 5 µg/ml)"}
{"binder": "B2", "binding result": "no binding (tested: 5 µg/ml)"}
{"binder": "B3", "binding result": "no binding (tested: 5 µg/ml)"}
{"biological_target": "T7, human KDR (VEGFR2) on cells (human, UniProt P35968 20-1356)", "T7 construct": "Transfected HEK293 cells (arrays, flow cytometry) and human VEGFR2 reporter cells", "T7 sequence (P35968 20-1356 limits assumed)": "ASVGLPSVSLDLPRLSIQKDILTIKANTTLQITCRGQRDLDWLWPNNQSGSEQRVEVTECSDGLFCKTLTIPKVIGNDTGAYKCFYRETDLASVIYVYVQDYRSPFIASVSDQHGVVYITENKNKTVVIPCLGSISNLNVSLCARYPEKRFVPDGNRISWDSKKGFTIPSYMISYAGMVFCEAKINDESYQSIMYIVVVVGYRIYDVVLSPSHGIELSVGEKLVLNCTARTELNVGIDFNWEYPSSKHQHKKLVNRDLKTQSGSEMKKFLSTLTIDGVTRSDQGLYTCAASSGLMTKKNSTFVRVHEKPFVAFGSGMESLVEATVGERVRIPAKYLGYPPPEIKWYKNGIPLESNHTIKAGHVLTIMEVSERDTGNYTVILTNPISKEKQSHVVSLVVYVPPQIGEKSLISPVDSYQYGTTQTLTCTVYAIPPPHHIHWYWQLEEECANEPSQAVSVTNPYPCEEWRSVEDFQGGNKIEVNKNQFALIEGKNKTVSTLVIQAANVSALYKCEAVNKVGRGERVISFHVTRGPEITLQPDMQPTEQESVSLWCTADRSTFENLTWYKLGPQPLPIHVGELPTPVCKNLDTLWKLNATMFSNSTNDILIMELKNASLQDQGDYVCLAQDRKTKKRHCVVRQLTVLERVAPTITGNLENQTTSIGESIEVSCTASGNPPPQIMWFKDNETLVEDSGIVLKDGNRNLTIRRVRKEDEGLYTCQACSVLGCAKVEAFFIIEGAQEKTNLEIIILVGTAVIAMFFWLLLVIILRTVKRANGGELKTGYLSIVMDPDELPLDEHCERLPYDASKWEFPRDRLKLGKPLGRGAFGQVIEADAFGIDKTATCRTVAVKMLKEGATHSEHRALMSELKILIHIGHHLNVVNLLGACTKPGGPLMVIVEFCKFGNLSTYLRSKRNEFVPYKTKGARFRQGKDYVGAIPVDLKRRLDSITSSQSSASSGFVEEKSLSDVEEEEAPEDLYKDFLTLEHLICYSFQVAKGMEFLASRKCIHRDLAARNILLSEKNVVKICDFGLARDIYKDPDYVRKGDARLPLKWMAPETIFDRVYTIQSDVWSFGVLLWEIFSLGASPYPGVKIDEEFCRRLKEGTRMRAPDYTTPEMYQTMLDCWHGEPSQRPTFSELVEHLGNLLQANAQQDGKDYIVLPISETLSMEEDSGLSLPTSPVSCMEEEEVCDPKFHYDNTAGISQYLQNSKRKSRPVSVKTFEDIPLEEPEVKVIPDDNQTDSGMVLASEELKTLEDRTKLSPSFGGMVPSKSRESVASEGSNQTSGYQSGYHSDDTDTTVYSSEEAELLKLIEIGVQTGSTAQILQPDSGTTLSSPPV", "test": "cell microarray re-array, transfected HEK293", "description": "as §1"}
{"binder": "B1", "binding result": "no binding (tested: 5 µg/ml)"}
{"binder": "B2", "binding result": "no binding (tested: 5 µg/ml)"}
{"binder": "B3", "binding result": "no binding (tested: 5 µg/ml)"}
{"biological_target": "T8, human ULBP2 (UL16 binding protein 2) on transfected HEK293 cells (human, UniProt Q9BZM5 26-217)", "T8 sequence": "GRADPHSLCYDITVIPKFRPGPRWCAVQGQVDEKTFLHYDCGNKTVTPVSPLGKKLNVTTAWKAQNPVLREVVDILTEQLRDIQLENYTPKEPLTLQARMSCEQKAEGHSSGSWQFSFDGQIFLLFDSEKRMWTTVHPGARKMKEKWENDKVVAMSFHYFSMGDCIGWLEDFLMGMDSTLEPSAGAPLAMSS", "test": "cell microarray re-array, transfected HEK293", "description": "as §1"}
{"binder": "B1", "binding result": "no binding (tested: 5 µg/ml)"}
{"binder": "B2", "binding result": "no binding (tested: 5 µg/ml)"}
{"binder": "B3", "binding result": "no binding (tested: 5 µg/ml)"}
{"biological_target": "T9, biotinylated human PD1-His/AviTag (human, UniProt Q15116 25-170, limits assumed, biotinylated)", "T9 construct": "Alphascreen antigen; whole entry named; also called biotinylated monomeric human PD1; not shown: His/AviTag", "T9 sequence (Q15116 25-170 limits assumed)": "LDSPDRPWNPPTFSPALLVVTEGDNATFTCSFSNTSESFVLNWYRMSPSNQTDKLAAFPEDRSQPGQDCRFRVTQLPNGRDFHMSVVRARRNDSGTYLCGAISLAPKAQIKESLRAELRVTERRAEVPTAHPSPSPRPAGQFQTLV", "test": "Alphascreen competition vs IgG1-Mab005 (humanized)", "description": "The AlphaScreen assay (Perkin Elmer) was performed in a 25 μl final volume in 384-well white microtiter plates (Greiner). The reaction buffer contained 1×PBS pH 7.3 (Oxoid, Cat. nr. BRO014G) and 0.05% (v/v) Tween® 20 (Sigma, Cat. nr. P9416). Purified IgG samples were titrated in three fold serial dilutions starting at 500 nM final concentration and incubated with biotinylated human PD1-His/AviTag at 0.6 nM final concentration for 20 minutes at room temperature. […] Followed by addition of the Streptavidin Donor beads at 20 μg/ml (final concentration) and incubation for 30 minutes at room temperature. The emission of light was measured in the EnVision multilabel plate reader (Perkin Elmer) and analysed using the EnVision manager software. Values were reported as Counts Per Second (CPS) and corrected for crosstalk.", "units": {"IC50": "nM"}}
{"binder": "B1", "IC50": 2.36}
{"binder": "B2", "IC50": 1.66}
{"binder": "B3", "IC50": 2.63}
